The record followed here is article PMC3623634 (Molecular Biology of the Cell, 2013).

Assay [1] deals with T1, GST-Alp7 (full-length Alp7/TACC fused to GST) (fission yeast, UniProt Q9URY2 1-474).
T1 sequence (looked up): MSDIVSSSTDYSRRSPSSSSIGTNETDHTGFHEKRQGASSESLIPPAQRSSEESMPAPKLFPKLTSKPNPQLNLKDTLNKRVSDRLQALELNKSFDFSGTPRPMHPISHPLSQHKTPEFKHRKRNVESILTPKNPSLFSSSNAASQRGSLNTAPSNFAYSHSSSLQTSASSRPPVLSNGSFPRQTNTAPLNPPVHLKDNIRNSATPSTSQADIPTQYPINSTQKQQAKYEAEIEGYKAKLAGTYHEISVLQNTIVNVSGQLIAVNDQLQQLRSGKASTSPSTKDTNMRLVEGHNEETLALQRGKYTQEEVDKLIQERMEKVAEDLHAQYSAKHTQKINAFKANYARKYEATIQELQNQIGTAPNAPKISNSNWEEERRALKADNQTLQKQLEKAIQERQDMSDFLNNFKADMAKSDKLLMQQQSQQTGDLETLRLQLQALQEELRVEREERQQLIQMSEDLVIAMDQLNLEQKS
The assay is described as follows: peptide or protein array.

Assay [2] deals with T2, GST-Alp7C (C-terminal half of Alp7, TACC domain, residues 219-474) (fission yeast, UniProt Q9URY2 219-474).
T2 sequence (looked up): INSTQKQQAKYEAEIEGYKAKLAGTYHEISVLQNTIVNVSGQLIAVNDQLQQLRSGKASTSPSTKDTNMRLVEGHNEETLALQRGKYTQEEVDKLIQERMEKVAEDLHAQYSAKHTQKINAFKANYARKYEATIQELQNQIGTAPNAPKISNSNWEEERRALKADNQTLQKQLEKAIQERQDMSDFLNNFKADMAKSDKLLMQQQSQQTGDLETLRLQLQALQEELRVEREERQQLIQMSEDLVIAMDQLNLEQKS
The assay is described as follows: peptide or protein array.

On to DSLEKKVQKLNSLA (peptide, UniProt Q10198 411-424, looked up) [Ndc80 loop peptide (411-424) with F420 replaced by leucine], for which the binding result in assay [1] and in assay [2] was “binds” in each case.
Turning to DSLEKKVQKINSLA (peptide, UniProt Q10198 411-424, looked up) [Ndc80 loop peptide (411-424) with F420 replaced by isoleucine], the binding result in assay [1] and in assay [2] was “binds” throughout.
